Measured values reported in patent US20200325224A1 (Hoffmann-La Roche, published 2020).

How the values were obtained:
[1] = molecular target: T1, human CD3e-1-26-Fc(knob)-Avi/Fc(hole) (human, UniProt P0DOX5 223-449 = IgG part); assay: ELISA, biotinylated target on streptavidin plate
T1 construct: First 26 amino acids of mature CD3e fused to Fc(knob), co-expressed with Fc(hole); biotinylated for the ELISA; also called huCD3e-1-26 huFc
Description: (§1) Binding of anti-CD3 antibodies to human and cynomolgus CD3 proteins and peptides was determined by ELISA. Biotinylated target proteins and peptides were immobilized on a 384-well streptavidin-coated microplate (MaxiSorb; MicroCoat, DE, Cat. No. 11974998/MC1099) in 25 μl/well, in DPBS (PAN Biotech GmbH, DE, Cat. No. P0436500) by incubation over night at 4° C. […] Peptides used were produced with biotin attached via linkers either to the N- or the C-terminus of the peptide. For target binding ELISA N- and C-terminal biotinylated peptides were mixed in a 1:1 ratio for immobilization on microplates (Table 8) and used separately (Table 8). […] Antibodies were detected with peroxidase-linked, species-specific anti-rabbit IgG, (F(ab′)₂ fragment, from donkey, GE, Cat. No. NA 9340) diluted 1:5000 in 1×PBS (w/0.5% BSA, w/0.05% Tween 20) for 1 h at room temperature. Detection antibodies were removed by four washing steps with washing buffer and signal was developed by addition of TMB substrate (TMB solution, Roche). Absorbance was read out after fixed time intervals at […].

[2] = molecular target: T2, cynomolgus CD3e 5-26-Fc(knob)-Avi/Fc(hole) (cynomolgus, UniProt P0DOX5 223-449 = IgG part); assay: ELISA, biotinylated target on streptavidin plate
T2 construct: Residues 5-26 of mature CD3e fused to Fc(knob), co-expressed with Fc(hole); biotinylated for the ELISA; also called cyCD3e 5-26 huFc
Description: as §1

[3] = molecular target: T3, human CD3e 5-26-Fc(knob)-Avi/Fc(hole) (human, UniProt P0DOX5 223-449 = IgG part); assay: ELISA, biotinylated target on streptavidin plate
T3 construct: Residues 5-26 of mature CD3e fused to Fc(knob), co-expressed with Fc(hole); biotinylated for the ELISA; also called huCD3e 5-26- huFc
Description: as §1

[4] = molecular target: T4, human CD3e amino acids 1-22 peptide (1:1 mixture of N- and C-terminally biotinylated variants) (human, biotin attached via linker to the N- or the C-terminus (1:1 mixture)); assay: ELISA, biotinylated target on streptavidin plate
T4 construct: Linker not described; also called huCD3e- 1-22 peptide
Description: as §1

[5] = molecular target: T5, cynomolgus CD3e amino acids 1-22 peptide (1:1 mixture of N- and C-terminally biotinylated variants) (cynomolgus, biotin attached via linker to the N- or the C-terminus (1:1 mixture)); assay: ELISA, biotinylated target on streptavidin plate
T5 construct: Linker not described; also called cyCD3e- 1-22 peptide; cynomolgus CD3 peptide-1-22
T5 peptide: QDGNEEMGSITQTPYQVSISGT
Description: as §1

[6] = molecular target: T6, cynomolgus CD3e stalk-Fc(knob)-Avi/CD3d-stalk-Fc(hole) (cynomolgus); assay: SPR (BIACORE T100), antibody captured by anti-rabbit IgG Fc, antigen in solution, 25 C, 1:1 Langmuir
T6 construct: Heterodimer; biotinylated for the ELISA; used in solution in SPR; also called cyCD3ed stalk huFc; cynomolgusCD3e(stalk)Fc-Knob-CD3d(stalk)FcHole
Description: Around 2000 resonance units (RU) of the capturing system (10 μg/ml goat anti rabbit IgG Fc Fragment specific; Order Code: 111-005-046; Jackson Immuno Research) were coupled on a CM4 chip (GE Healthcare, BR-1005-34) at pH 5.0 by using an amine coupling kit supplied by the GE Healthcare. Running buffer for Immobilization was HBS-N pH 7.4 (10 mM HEPES, 150 mM NaCl, pH 7.4, GE Healthcare, BR-1006-70). For the followed kinetic assay running and dilution buffer was HBS-P pH 7.4 (10 mM HEPES, 150 mM NaCl, 0.05% Surfactant P20, pH 7.4, GE Healthcare, BR-1006-71). The flow cell was set to 25° C.—and the sample block set to 12° C.—and primed with running buffer twice. […] Association was measured by injection of human CD3e(stalk)Fc-Knob-CD3d(stalk)FcHole or cynomolgus CD3e(stalk)Fc-Knob-CD3d(stalk)FcHole in various concentrations in solution for 180 sec at a flow of 30 μl/min starting with 1350 nM, followed by one 1:1.5 dilution and further in 1:3 dilutions. The dissociation phase was monitored for up to 300 sec and triggered by switching from the sample solution to running buffer. The surface was regenerated by washing with two consecutive injections of a Glycine pH 1.7 solution for 60 sec at a flow rate of 10 μl/min. Bulk refractive index differences were corrected by subtracting the response obtained from a goat anti rabbit IgG Fc surface. Blank injections are also subtracted (=double referencing). For calculation of KD and other kinetic parameters the Langmuir 1:1 model was used.

T6 sequence (chain, as listed by the source limits assumed): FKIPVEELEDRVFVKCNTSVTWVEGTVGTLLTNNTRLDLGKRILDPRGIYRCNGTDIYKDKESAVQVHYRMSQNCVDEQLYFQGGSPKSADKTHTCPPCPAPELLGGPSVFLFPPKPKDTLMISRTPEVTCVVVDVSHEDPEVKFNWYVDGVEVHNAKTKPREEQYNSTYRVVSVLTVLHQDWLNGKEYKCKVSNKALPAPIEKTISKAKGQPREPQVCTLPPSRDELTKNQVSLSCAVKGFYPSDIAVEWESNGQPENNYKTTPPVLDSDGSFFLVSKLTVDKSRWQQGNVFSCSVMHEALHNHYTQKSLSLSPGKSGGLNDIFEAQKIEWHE
T4 sequence (peptide, as listed by the source mutant): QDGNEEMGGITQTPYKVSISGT

binding result [1]: no binding
binding result [2]: no binding
binding result [3]: no binding
binding result [4]: no binding
binding result [5]: no binding
Kd [6]: 620 nM
koff [6]: 0.013 s⁻¹
kon [6]: 21000 M⁻¹ s⁻¹
B1: antibody clone 645 (antibody, V domains shown)
VH: QSLEESGGDLVKPGASLTLTCLASGFSFSGTYWICWVRQAPGKGLEWIGCISTDSGSTYYASWAKGRFTISKTSSTTVTLQMTSLTAADTATNFCARSAYASEGYALWGPGTLVTVSS
VL: AIVMTQTPSSKSVPVGDTVTINCQASESVYNNNYLSWYQQKPGQPPKLLIYYASTLASGVSSRFKGSGSGTQFTLTISDVVCDDAATYYCTGWKSITTDGMGAFGGGTEVVVKG
notes: Rabbit monoclonal; Recombinantly expressed with rabbit gamma and kappa constant regions in HEK293 (captured by anti-rabbit IgG Fc in SPR); also called Mab.645
